Patent US12099068B2, “Biomarkers for graft-versus-host disease” (Incyte Corporation, priority 2018, dated 2024)

B1: VSIG2 (protein, UniProt Q96IQ7 24-327, looked up)
V-set and immunoglobulin …: VEVKVPTEPLSTPLGKTAELTCTYSTSVGDSFALEWSFVQPGKPISESHPILYFTNGHLYPTGSKSKRVSLLQNPPTVGVATLKLTDVHPSDTGTYLCQVNNPPDFYTNGLGLINLTVLVPPSNPLCSQSGQTSVGGSTALRCSSSEGAPKPVYNWVRLGTFPTPSPGSMVQDEVSGQLILTNLSLTSSGTYRCVATNQMGSASCELTLSVTEPSQGRVAGALIGVLLGVLLLSVAAFCLVRFQKERGKKPKETYGGSDLREDAIAPGISEHTCMRADSSKGFLERPSSASTVTTTKSKLPMVV
B2: SLITRK2 (protein, UniProt Q9H156 22-845, looked up)
SLIT and NTRK-like protein 2: RKTAKDICKIRCLCEEKENVLNINCENKGFTTVSLLQPPQYRIYQLFLNGNLLTRLYPNEFVNYSNAVTLHLGNNGLQEIRTGAFSGLKTLKRLHLNNNKLEILREDTFLGLESLEYLQADYNYISAIEAGAFSKLNKLKVLILNDNLLLSLPSNVFRFVLLTHLDLRGNRLKVMPFAGVLEHIGGIMEIQLEENPWNCTCDLLPLKAWLDTITVFVGEIVCETPFRLHGKDVTQLTRQDLCPRKSASDSSQRGSHADTHVQRLSPTMNPALNPTRAPKASRPPKMRNRPTPRVTVSKDRQSFGPIMVYQTKSPVPLTCPSSCVCTSQSSDNGLNVNCQERKFTNISDLQPKPTSPKKLYLTGNYLQTVYKNDLLEYSSLDLLHLGNNRIAVIQEGAFTNLTSLRRLYLNGNYLEVLYPSMFDGLQSLQYLYLEYNVIKEIKPLTFDALINLQLLFLNNNLLRSLPDNIFGGTALTRLNLRNNHFSHLPVKGVLDQLPAFIQIDLQENPWDCTCDIMGLKDWTEHANSPVIINEVTCESPAKHAGEILKFLGREAICPDSPNLSDGTVLSMNHNTDTPRSLSVSPSSYPELHTEVPLSVLILGLLVVFILSVCFGAGLFVFVLKRRKGVPSVPRNTNNLDVSSFQLQYGSYNTETHDKTDGHVYNYIPPPVGQMCQNPIYMQKEGDPVAYYRNLQEFSYSNLEEKKEEPATPAYTISATELLEKQATPREPELLYQNIAERVKELPSAGLVHYNFCTLPKRQFAPSYESRRQNQDRINKTVLYGTPRKCFVGQSKPNHPLLQAKPQSEPDYLEVLEKQTAISQL
B3: IDUA (protein, UniProt P35475 28-653, looked up)
Alpha-L-iduronidase: APHLVHVDAARALWPLRRFWRSTGFCPPLPHSQADQYVLSWDQQLNLAYVGAVPHRGIKQVRTHWLLELVTTRGSTGRGLSYNFTHLDGYLDLLRENQLLPGFELMGSASGHFTDFEDKQQVFEWKDLVSSLARRYIGRYGLAHVSKWNFETWNEPDHHDFDNVSMTMQGFLNYYDACSEGLRAASPALRLGGPGDSFHTPPRSPLSWGLLRHCHDGTNFFTGEAGVRLDYISLHRKGARSSISILEQEKVVAQQIRQLFPKFADTPIYNDEADPLVGWSLPQPWRADVTYAAMVVKVIAQHQNLLLANTTSAFPYALLSNDNAFLSYHPHPFAQRTLTARFQVNNTRPPHVQLLRKPVLTAMGLLALLDEEQLWAEVSQAGTVLDSNHTVGVLASAHRPQGPADAWRAAVLIYASDDTRAHPNRSVAVTLRLRGVPPGPGLVYVTRYLDNGLCSPDGEWRRLGRPVFPTAEQFRRMRAAEDPVAAAPRPLPAGGRLTLRPALRLPSLLLVHVCARPEKPPGQVTRLRALPLTQGQLVLVWSDEHVGSKCLWTYEIQFSQDGKAYTPVSRKPSTFNLFVFSPDTGAVSGSYRVRALDYWARPGPFSDPVPYLEVPVPRGPPSPGNP
B4: PRELP (protein, UniProt P51888 21-382, looked up)
Prolargin: QPTRRPRPGTGPGRRPRPRPRPTPSFPQPDEPAEPTDLPPPLPPGPPSIFPDCPRECYCPPDFPSALYCDSRNLRKVPVIPPRIHYLYLQNNFITELPVESFQNATGLRWINLDNNRIRKIDQRVLEKLPGLVFLYMEKNQLEEVPSALPRNLEQLRLSQNHISRIPPGVFSKLENLLLLDLQHNRLSDGVFKPDTFHGLKNLMQLNLAHNILRKMPPRVPTAIHQLYLDSNKIETIPNGYFKSFPNLAFIRLNYNKLTDRGLPKNSFNISNLLVLHLSHNRISSVPAINNRLEHLYLNNNSIEKINGTQICPNDLVAFHDFSSDLENVPHLRYLRLDGNYLKPPIPLDLMMCFRLLQSVVI
B5: CEACAM5 (protein, UniProt P06731 35-685, looked up)
Cell adhesion molecule CEACAM5: KLTIESTPFNVAEGKEVLLLVHNLPQHLFGYSWYKGERVDGNRQIIGYVIGTQQATPGPAYSGREIIYPNASLLIQNIIQNDTGFYTLHVIKSDLVNEEATGQFRVYPELPKPSISSNNSKPVEDKDAVAFTCEPETQDATYLWWVNNQSLPVSPRLQLSNGNRTLTLFNVTRNDTASYKCETQNPVSARRSDSVILNVLYGPDAPTISPLNTSYRSGENLNLSCHAASNPPAQYSWFVNGTFQQSTQELFIPNITVNNSGSYTCQAHNSDTGLNRTTVTTITVYAEPPKPFITSNNSNPVEDEDAVALTCEPEIQNTTYLWWVNNQSLPVSPRLQLSNDNRTLTLLSVTRNDVGPYECGIQNELSVDHSDPVILNVLYGPDDPTISPSYTYYRPGVNLSLSCHAASNPPAQYSWLIDGNIQQHTQELFISNITEKNSGLYTCQANNSASGHSRTTVKTITVSAELPKPSISSNNSKPVEDKDAVAFTCEPEAQNTTYLWWVNGQSLPVSPRLQLSNGNRTLTLFNVTRNDARAYVCGIQNSVSANRSDPVTLDVLYGPDTPIISPPDSSYLSGANLNLSCHSASNPSPQYSWRINGIPQQHTQVLFIAKITPNNNGTYACFVSNLATGRNNSIVKSITVSASGTSPGLSA
B6: CXCL16 (protein, UniProt Q9H2A7 30-254, looked up)
C-X-C motif chemokine 16: NEGSVTGSCYCGKRISSDSPPSVQFMNRLRKHLRAYHRCLYYTRFQLLSWSVCGGNKDPWVQELMSCLDLKECGHAYSGIVAHQKHLLPTSPPISQASEGASSDIHTPAQMLLSTLQSTQRPTLPVGSLSSDKELTRPNETTIHTAGHSLAAGPEAGENQKQPEKNAGPTARTSATVPVLCLLAIIFILTAALSYVLCKRRRGQSPQSSPDLPVHYIPVAPDSNT
B7: DAPP1 (protein, UniProt Q9UN19 1-280, looked up)
Dual adapter for …: MGRAELLEGKMSTQDPSDLWSRSDGEAELLQDLGWYHGNLTRHAAEALLLSNGCDGSYLLRDSNETTGLYSLSVRAKDSVKHFHVEYTGYSFKFGFNEFSSLKDFVKHFANQPLIGSETGTLMVLKHPYPRKVEEPSIYESVRVHTAMQTGRTEDDLVPTAPSLGTKEGYLTKQGGLVKTWKTRWFTLHRNELKYFKDQMSPEPIRILDLTECSAVQFDYSQERVNCFCLVFPFRTFYLCAKTGVEADEWIKILRWKLSQIRKQLNQGEGTIRSRSFIFK
B8: HO-1 (protein, UniProt P09601 1-288, looked up)
Heme oxygenase 1: MERPQPDSMPQDLSEALKEATKEVHTQAENAEFMRNFQKGQVTRDGFKLVMASLYHIYVALEEEIERNKESPVFAPVYFPEELHRKAALEQDLAFWYGPRWQEVIPYTPAMQRYVKRLHEVGRTEPELLVAHAYTRYLGDLSGGQVLKKIAQKALDLPSSGEGLAFFTFPNIASATKFKQLYRSRMNSLEMTPAVRQRVIEEAKTAFLLNIQLFEELQELLTHDTKDQSPSRAPGLRQRASNKVQDSAPVETPRGKPPLNTRSQAPLLRWVLTLSFLVATVAVGLYAM
B9: SELP (protein, UniProt P16109 42-830, looked up)
P-selectin: WTYHYSTKAYSWNISRKYCQNRYTDLVAIQNKNEIDYLNKVLPYYSSYYWIGIRKNNKTWTWVGTKKALTNEAENWADNEPNNKRNNEDCVEIYIKSPSAPGKWNDEHCLKKKHALCYTASCQDMSCSKQGECLETIGNYTCSCYPGFYGPECEYVRECGELELPQHVLMNCSHPLGNFSFNSQCSFHCTDGYQVNGPSKLECLASGIWTNKPPQCLAAQCPPLKIPERGNMTCLHSAKAFQHQSSCSFSCEEGFALVGPEVVQCTASGVWTAPAPVCKAVQCQHLEAPSEGTMDCVHPLTAFAYGSSCKFECQPGYRVRGLDMLRCIDSGHWSAPLPTCEAISCEPLESPVHGSMDCSPSLRAFQYDTNCSFRCAEGFMLRGADIVRCDNLGQWTAPAPVCQALQCQDLPVPNEARVNCSHPFGAFRYQSVCSFTCNEGLLLVGASVLQCLATGNWNSVPPECQAIPCTPLLSPQNGTMTCVQPLGSSSYKSTCQFICDEGYSLSGPERLDCTRSGRWTDSPPMCEAIKCPELFAPEQGSLDCSDTRGEFNVGSTCHFSCDNGFKLEGPNNVECTTSGRWSATPPTCKGIASLPTPGVQCPALTTPGQGTMYCRHHPGTFGFNTTCYFGCNAGFTLIGDSTLSCRPSGQWTAVTPACRAVKCSELHVNKPIAMNCSNLWGNFSYGSICSFHCLEGQLLNGSAQTACQENGHWSTTVPTCQAGPLTIQEALTYFGGAVASTIGLIMGGTLLALLRKRFRQKDDGKCPLNPHSHLGTYGVFTNAAFDPSP
B10: NCF2 (protein, UniProt P19878 1-526, looked up)
Neutrophil cytosol factor 2: MSLVEAISLWNEGVLAADKKDWKGALDAFSAVQDPHSRICFNIGCMYTILKNMTEAEKAFTRSINRDKHLAVAYFQRGMLYYQTEKYDLAIKDLKEALIQLRGNQLIDYKILGLQFKLFACEVLYNIAFMYAKKEEWKKAEEQLALATSMKSEPRHSKIDKAMECVWKQKLYEPVVIPVGKLFRPNERQVAQLAKKDYLGKATVVASVVDQDSFSGFAPLQPQAAEPPPRPKTPEIFRALEGEAHRVLFGFVPETKEELQVMPGNIVFVLKKGNDNWATVMFNGQKGLVPCNYLEPVELRIHPQQQPQEESSPQSDIPAPPSSKAPGRPQLSPGQKQKEEPKEVKLSVPMPYTLKVHYKYTVVMKTQPGLPYSQVRDMVSKKLELRLEHTKLSYRPRDSNELVPLSEDSMKDAWGQVKNYCLTLWCENTVGDQGFPDEPKESEKADANNQTTEPQLKKGSQVEALFSYEATQPEDLEFQEGDIILVLSKVNEEWLEGECKGKVGIFPKVFVEDCATTDLESTRREV
B11: CLUL1 (protein, UniProt Q15846 21-466, looked up)
Clusterin-like protein 1: APTWKDKTAISENLKSFSEVGEIDADEEVKKALTGIKQMKIMMERKEKEHTNLMSTLKKCREEKQEALKLLNEVQEHLEEEERLCRESLADSWGECRSCLENNCMRIYTTCQPSWSSVKNKIERFFRKIYQFLFPFHEDNEKDLPISEKLIEEDAQLTQMEDVFSQLTVDVNSLFNRSFNVFRQMQQEFDQTFQSHFISDTDLTEPYFFPAFSKEPMTKADLEQCWDIPNFFQLFCNFSVSIYESVSETITKMLKAIEDLPKQDKAPDHGGLISKMLPGQDRGLCGELDQNLSRCFKFHEKCQKCQAHLSEDCPDVPALHTELDEAIRLVNVSNQQYGQILQMTRKHLEDTAYLVEKMRGQFGWVSELANQAPETEIIFNSIQVVPRIHEGNISKQDETMMTDLSILPSSNFTLKIPLEESAESSNFIGYVVAKALQHFKEHFKTW

test system: plasma proteins; assay: Plasma proteins modulated between baseline and day 28 in responders (CR, VGPR, PR; n = 19), Example 6 (Table 13); assay type: in vivo, human; conditions: plasma protein (OLINK NPX); responders (CR, VGPR, PR; n = 19); itacitinib 200 mg or 300 mg QD with corticosteroids; day 28 vs baseline
How it was run: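 Plasma at baseline/screening and day 28 profiled for >1000 proteins by OLINK proximity extension assay, reported as NPX (log2). Steroid-naive and steroid-refractory patients pooled. Paired and unpaired t tests, ANOVA and Pearson correlation applied; significance at P<0.05.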

| Molecule | Fold Change, Increased Expression from Baseline to Day 28 | Fold Change, Decreased Expression from Baseline to Day 28 |
| --- | --- | --- |
| B1 | 1.2163 | – |
| B2 | 1.2986 | – |
| B3 | – | −1.3887 |
| B4 | 1.1833 | – |
| B5 | 1.6422 | – |
| B6 | 1.2028 | – |
| B7 | – | −1.3805 |
| B8 | 1.3293 | – |
| B9 | – | −1.9244 |
| B10 | – | −2.4951 |
| B11 | 1.3108 | – |
